B1: Protein sprouty homolog 1 (Homo sapiens), O43609 (parent)
chain: MDPQNQHGSGSSLVVIQQPSLDSRQRLDYEREIQPTAILSLDQIKAIRGSNEYTEGPSVVKRPAPRTAPRQEKHERTHEIIPINVNNNYEHRHTSHLGHAVLPSNARGPILSRSTSTGSAASSGSNSSASSEQGLLGRSPPTRPVPGHRSERAIRTQPKQLIVDDLKGSLKEDLTQHKFICEQCGKCKCGECTAPRTLPSCLACNRQCLCSAESMVEYGTCMCLVKGIFYHCSNDDEGDSYSDNPCSCSQSHCCSRYLCMGAMSLFLPCLLCYPPAKGCLKLCRRCYDWIHRPGCRCKNSNTVYCKLESCPSRGQGKPS
B2: Protein sprouty homolog 2 (Homo sapiens), O43597 (parent)
chain: MEARAQSGNGSQPLLQTPRDGGRQRGEPDPRDALTQQVHVLSLDQIRAIRNTNEYTEGPTVVPRPGLKPAPRPSTQHKHERLHGLPEHRQPPRLQHSQVHSSARAPLSRSISTVSSGSRSSTRTSTSSSSSEQRLLGSSFSSGPVADGIIRVQPKSELKPGELKPLSKEDLGLHAYRCEDCGKCKCKECTYPRPLPSDWICDKQCLCSAQNVIDYGTCVCCVKGLFYHCSNDDEDNCADNPCSCSQSHCCTRWSAMGVMSLFLPCLWCYLPAKGCLKLCQGCYDRVNRPGCRCKNSNTVCCKVPTVPPRNFEKPT

Variants of B1 are the subject of assay [1]. The note with it: with cbl_human CBL.
Assay [2] covers variants of B1. The settings on record: with grb2_human GRB2, P62993.
Target sequence in this assay (P62993 whole entry, looked up): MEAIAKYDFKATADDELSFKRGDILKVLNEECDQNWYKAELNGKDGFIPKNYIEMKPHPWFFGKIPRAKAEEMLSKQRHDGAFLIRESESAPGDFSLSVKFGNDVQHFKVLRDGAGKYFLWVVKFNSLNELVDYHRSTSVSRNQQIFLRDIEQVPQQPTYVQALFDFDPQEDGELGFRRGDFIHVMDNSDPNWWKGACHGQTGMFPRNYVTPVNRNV
In assay [3] the parent is B2. The settings on record: with cbl_human CBL. This is another data set of the same source.
Variants of B2 are the subject of assay [4]. The note with it: with grb2_human GRB2, P62993. This is another data set of the same source.
Target sequence in this assay (P62993 whole entry, looked up): as above

The results in this text go back to IntAct's records for PubMed 16893902.

As to MDPQNQHGSGSSLVVIQQPSLDSRQRLDYEREIQPTAILSLDQIKAIRGSNEFTEGPSVVKRPAPRTAPRQEKHERTHEIIPINVNNNYEHRHTSHLGHAVLPSNARGPILSRSTSTGSAASSGSNSSASSEQGLLGRSPPTRPVPGHRSERAIRTQPKQLIVDDLKGSLKEDLTQHKFICEQCGKCKCGECTAPRTLPSCLACNRQCLCSAESMVEYGTCMCLVKGIFYHCSNDDEGDSYSDNPCSCSQSHCCSRYLCMGAMSLFLPCLLCYPPAKGCLKLCRRCYDWIHRPGCRCKNSNTVYCKLESCPSRGQGKPS [Y53F], the “effect of a mutation on the interaction” value is given as “disrupting interaction” with cbl_human CBL, P22681 [1] and “decreasing interaction” with grb2_human GRB2, P62993 [2].

MEARAQSGNGSQPLLQTPRDGGRQRGEPDPRDALTQQVHVLSLDQIRAIRNTNEFTEGPTVVPRPGLKPAPRPSTQHKHERLHGLPEHRQPPRLQHSQVHSSARAPLSRSISTVSSGSRSSTRTSTSSSSSEQRLLGSSFSSGPVADGIIRVQPKSELKPGELKPLSKEDLGLHAYRCEDCGKCKCKECTYPRPLPSDWICDKQCLCSAQNVIDYGTCVCCVKGLFYHCSNDDEDNCADNPCSCSQSHCCTRWSAMGVMSLFLPCLWCYLPAKGCLKLCQGCYDRVNRPGCRCKNSNTVCCKVPTVPPRNFEKPT [Y55F]: the “effect of a mutation on the interaction” value in the assay with cbl_human CBL, P22681 [3] is given as “disrupting interaction”; with grb2_human GRB2, P62993 [4], “decreasing interaction”.
